The values that follow come from the DeepSol protein solubility set.

The data set can be described thus: soluble on expression in E. coli; label from the status in PepcDB or PDB records.
“MGSDKIHHHHHHMSQQTGEASKIKGRFRNSHKVYGAGLGDLVGIIKAYLGAKRSAPSPKSAVPLQPITPAELARPQARLYRLGHSTVLMYLDGKWLLTDPVFSERASPFQWAGPKRFHQSPIAIEALPDIDGLILSHDHYDHLDTAAIKALAARVKHFYMPLGVGKRLIRLGIDKARITELDWWQSVQLGTIELTATPAQHFSGRGLFDRDATLWAGWAIHGEQARVFFSGDSGYFPGFAEIGERLGPFDVTLMETGAYNELWRDIHMMPEESLQAHLDVKGQLMVPIHNGTFDLALHDWFEPLERIRALAWDRSVKIATPIFGEALSLTLPGSGSDWWAQESAISTGVDAREKGRAPAAESSMVGIAES”: the “soluble on expression in E. coli” value is on record as “not soluble”.

Turning to “MGSDKIHHHHHHMSRAITRAQLDKLVRSITKFYPQKYADKSWDNTGLLIDCSTAQVTTADANAKTKVLLTVDLTKSVAQEAVDANCNVIVAYHPFIFPSWNRLSPHTNPQHETAIKLIQYGISVYCPHTAVDAARGGVNDWLVRGLNNGENVAKSYALETVSGETDDLIGYGRFVEFNKDISLEQIVKNVKRVLRVPYVQVASLAAPSAWNQLKIKKVAVCAGSGSGVFKQLKEDVDLYYTGEMSHHEVLKWKEMGKTVIVCNHSNTERGFLQDVMKGLLQDEGHEVVVSKMDCDPLTVA”, the “soluble on expression in E. coli” value is “not soluble”.

“MGSDKIHHHHHHMSRQEQTPLFSGVVAHAKHNPVQFHIPGHKKGAGMDPAFRSFIGDNALSIDLINIGPLDDLHHPHGIIKEAQELAAEAFGADHTFFSVQGTSGAIMTMIMSVVGPGEKIIVPRNVHKSIMSAIVFSGATPVFIHPEIDPLLGISHGITIEAVEKALDAHPDAKGLLVINPTYFGIAANLKKIVELCHSRDVPVLVDEAHGVHIHFHEALPLSAMQAGADMAATSVHKLGGSLTQSSILNVREGLVSAKRVQTIISMLTTTSTSYLLLASLDAARKHLATNGRDLIGYTIQLADQARDQINAIDGLYCVGKEILGTIATYDYDPTKLIISVKNLGITGYDAEVWLREHYQIEVELSDLYNILCIVSFGDTEREMDLLVKALSELADLHKHGICERSPVSVYVPNIPTLAMSPRDAFYAETEVVPFEDSVGRTIAEFIMVYPPGIPILIPGEIITESNLAYIRENNRAGLPVQGPEDDTFRTLRVIKEHEAIR”: the “soluble on expression in E. coli” value is recorded as “not soluble”.

As to “MGSDKIHHHHHHMSSAQVNGISKRLIVESPNVKLEDGVLESRFTYRKNHFEHRADGLHVTPKEHDYSFKTVLKPRKTGLLLVGLGGNNGSTAVGSIFANQYAMTWRTKEGHSQANYFGSVTQTATVHLGYDSATQNQIFVPFKDIVPILSPNDLIISGWDISDSNLYEAMGRAKVFEPELQEKLRPFMEPIVPLPSIYYPDFIASNQGDRANNVIPGDNKLEHLEHIRADIRKFKQEHELECVIVLWTANTERYTDVRQGLNATADEIMESIRVNEDEVSPSNIFAVASILEGAHYINGSPQNTLVPGLIELAERHKVFVGGDDFKSGQTKFKSAFVDFLVSSGMKPESIVSYNHLGNNDGKNLSEARQFRSKEISKSSVVDDMVKSNQILFPDAKNPDYCVVIKYVPYVADSKRAMDEYICSIFMGGKQTFVVHNTCEDSLLASPLIYDLAILTELASRVSYKVDDEYKPFHSVLSILSLLLKAPVVPPGTPISNAFMRQFSTLTKLVTALAGFPSDTDMQIEFFTQLPAAKSKSQ”, the “soluble on expression in E. coli” value is “soluble”.

Take “MGSDKIHHHHHHMSSCEIFPLISKLSAEGKRFAIVSIYKGNRLERTIVSDGRVLLGSLDRNIIEIALEALEKGKVIQKDLEDGKLVIEPIEPRPAIIVVGSGIIARFLAKLAIDMGYYVAVVGSGDVKEEDFSGVYAISNDLNLLEQMVSEDSIVIVANEGGKPYDIDALYIAMKKRARFVGLLASQKRAALMISLLVKRDIPLEEIKRRLHSPLGLDIGSKTAEEIALSILSEVVLDLRGGTGKRLQEVKNPYLLLDDALAGKIEDKCMFVPKSLSQQ”: the “soluble on expression in E. coli” value is listed as “not soluble”.

As for “MGSDKIHHHHHHMSSRNRIIWREGLFIKPQHFQQQQRHTDYALHARLSALSDYFYGLQSLAINEEYLNFGRIALVNASGVMPDGTVFNIPGDDALPLPLEITDVALANQKVYLALPLAVNGVSEVGQPGQGIASRLQSHRHDVRDLHSDGGDIVSLEVGKVSLRLMLDRDDRSAYASLAIANILDKRPDGGLILDPNFMPCSISVTAIPTLKRFLGESAGLVAERARSLAQRIAAPGQQGVADVAEFMMLQLLNRAQPKLSHLARLGTLHPERLHETLVELCGELMTFTDESRLPPEFPAYRHEHQQASFEPLMMALRQALSTVLSPRAVSIQLKKQPYGVMVAMVGDAELMTSAEFVLAVRARMPQEHLRKQLLQQTKIASSEKIRELISLQLPGIPLLPLPVAPRQLPYHAGYSYFQLDRQSPAWQVLVSGNTLAFHIAGEFPELDMQLWAIRGQ”, the “soluble on expression in E. coli” value is “not soluble”.
